Measured values taken from the supplement of paper PMC12764529.
± gives the half width of the 95% confidence interval.

Columns and labels:
[1] = folding stability dG unfold from trypsin proteolysis; higher = more stable
In short: (§1)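 Designed mini-proteins with no cysteine and under 80 residues were kept only if AlphaFold2 dimer inter-PAE was above 15. In a PA-tagged cDNA display construct, they were digested with trypsin and chymotrypsin and then sequenced. K50 was inferred by Bayesian fitting of counts, and unfolding free energy was derived per protease or combined against a sequence-predicted unfolded-state K50 and a shared folded-state K50.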

[2] = folding stability dG unfold from chymotrypsin proteolysis; higher = more stable
In short: as §1

[3] = folding stability dG unfold (combined trypsin and chymotrypsin); higher = more stable
In short: as §1

Sequence | folding stability dG unfold [1] | folding stability dG unfold [2] | folding stability dG unfold [3]
SAGGAMPVELVETLEEIPGKGIVLRKFRDPLSDKWFLATVPVETLPNGEKKYLIELNIDGSGMTLELGSAGG [r13_993_JUSTAS] | 0.0151 ± 0.099 kcal/mol | 0.11 ± 0.22 kcal/mol | 0.173 ± 0.17 kcal/mol
SAGDKGRYHFPFTVTMPPGKPPSQIEDALGKYGWDDVDINREPPPNGETKYTINVHMPKEDLPKLLEAFSAG [r5_376_TrROS] | 0.895 ± 0.039 kcal/mol | 0.933 ± 0.26 kcal/mol | 0.963 ± 0.12 kcal/mol
SSSSSRTIEYPDSTLELTFTTTPLPDDTYRVPVQVTRYDPVTKTWSTRNLTVPFPPSDPEAAAEAVIARLLS [r1_171_JUSTAS] | 0.11 ± 0.1 kcal/mol | 0.39 ± 0.11 kcal/mol | 0.355 ± 0.092 kcal/mol
SAGGSAGGSAGGSEVEVTTRPDGSIVARVRLPDGGVLTLVAEVGPDGSVVVTEASLSPESAGGSAGGSAGGS [r4_246_TrMRF] | 0.856 ± 0.026 kcal/mol | 1.94 ± 0.027 kcal/mol | 1.66 ± 0.052 kcal/mol
SAGGSAMKLPKNVKITITKNKDGTVTITITYPDGKKITITMKIDKNGKLKFTKEQIKKLIKELAKKSAGGSA [r15_780_TrROS_Hall] | 2.74 ± 0.089 kcal/mol | 2.52 ± 0.082 kcal/mol | 2.53 ± 0.22 kcal/mol
SAGGEVRLRLEAELLPDGTLVLRGRVEVRVGDRVFEFEFELVLRLEPVPPPPAPARPLLIPERLLDASAGGS [r8_269_TrMRF] | 1.47 ± 0.098 kcal/mol | 2.4 ± 0.065 kcal/mol | 2.13 ± 0.12 kcal/mol
SAGMPEIVKVKVKIKVNIPVFDKNGKLIGLIPKEYEFEIEAPYEEIKNIIESLPENAEVVEILEIENESAGG [r19_114_TrMRF] | 4.27 ± 0.68 kcal/mol | 2.29 ± 0.29 kcal/mol | 3.29 ± 0.89 kcal/mol
SAGGSAGGSAMVVPRTYRVPPGLTVEEVADYLRAKDPNVIDATAERRPDGYLLVTVLVRLDSAGGSAGGSAG [r3_371_TrMRF] | 1.21 ± 0.068 kcal/mol | 2.07 ± 0.079 kcal/mol | 1.69 ± 0.17 kcal/mol
QRTVYIPIRGMPPDQMVDMIRMALRQAREKGHPNRTIRIWMPGPPEQRERARRYIKELADEPGLNVTIEGWS [r1_387_TrROS] | 1.71 ± 0.029 kcal/mol | 1.85 ± 0.08 kcal/mol | 1.84 ± 0.055 kcal/mol
SAGGSAGSFVNLGPEESEGVIVVTYYNEDGTTTTATYTYFPSPKTVSSNGPVTVPPNYKLSVSPLLSAGGSA [r15_198_JUSTAS] | 0.165 ± 0.051 kcal/mol | 1.13 ± 0.054 kcal/mol | 0.818 ± 0.067 kcal/mol
SAGGSAKWELSIWIPAPGMTPDKARELARDIAREFAQPGWKVKDIEVEPVNPDENVYRGTVTIEPPSAGGSA [r15_96_TrROS] | 0.951 ± 0.04 kcal/mol | 1.82 ± 0.11 kcal/mol | 1.49 ± 0.13 kcal/mol
SLGPNEDAILEEEAIIDIDPEAFRKAFGFDVPEDTKVLIITRRRVPANGDIETDPEIYIYDPKTKKFYPISA [r9_349_TrMRF] | 2.05 ± 0.046 kcal/mol | 2.34 ± 0.067 kcal/mol | 2.29 ± 0.16 kcal/mol
SAGGSARVIRNPDYGMWIRLQPTDGGYTVQIEMYRPDPEDGKPKRRPMTHTIPPDDLPPEIRDLLKSAGGSA [r15_703_TrROS] | 0.442 ± 0.1 kcal/mol | 0.515 ± 0.12 kcal/mol | 0.573 ± 0.07 kcal/mol
SAGGSAGGSAKKVVTVPEDATLEEIEELLKSGEKVTVVIHNKETGKTETLEFDSLEELKAASAGGSAGGSAG [r3_362_TrROS_Hall] | 0.601 ± 0.072 kcal/mol | 1.91 ± 0.16 kcal/mol | 1.53 ± 0.17 kcal/mol
EAFEKAIEAAIEAAEKGEKETEITLPLPDGKAIRVHATVEVKDGKPVRVDIHVELYGPNNVPYPFTLTITAS [r1_254_TrMRF] | 2.37 ± 0.13 kcal/mol | 2.83 ± 0.13 kcal/mol | 2.38 ± 0.18 kcal/mol
SAGGKMKTVKVTITDKDGRKIEIVDVTVKDNKVYVVVKDKKTKKTIVLEFDTKEEAEEAIKKLLEAKSAGGS [r16_736_TrROS_Hall] | 0.976 ± 0.071 kcal/mol | 2.52 ± 0.066 kcal/mol | 2.18 ± 0.34 kcal/mol
SSLGPGELEVTELETTEEELPDGTTLKRTLSREIVPDPAGAGRVVLTETLSTVPPDGSETVTTLSVTVLASA [r9_838_JUSTAS] | -0.078 ± 0.13 kcal/mol | -0.0934 ± 0.17 kcal/mol | -0.138 ± 0.16 kcal/mol
SAGGMLPGLRPLLLAVLVPAEEPLEPEQVRELAEELRRELEEKGYGFAFRAIELEDFQLIIVDVVDPFSAGG [r13_442_TrMRF] | 2.54 ± 0.051 kcal/mol | 3.429 ± 0.03 kcal/mol | 3.11 ± 0.051 kcal/mol
SAGGMPIKSKKEAEEFIKKGGAKYLSKTKVKVKGEEKEKEFEVYEFVFKDPKTNKPILVVVPKEYIGSAGGS [r16_271_TrMRF] | -0.0462 ± 0.2 kcal/mol | 1.27 ± 0.15 kcal/mol | 0.886 ± 0.23 kcal/mol
SAGKPESFSIEAPPIAPPEFPLGGSYRTLPNGEVLVLITLPDGTVLVLPSLDELRELRESGLPIDISPSSAG [r5_42_TrMRF] | 0.959 ± 0.017 kcal/mol | 1.17 ± 0.045 kcal/mol | 1.07 ± 0.045 kcal/mol
SAGGSAGGSAMEILSKEIIPNNDLIIIDIKVKKKNKEYIYKLIIKGDKIIKISEIEIDDAPSAGGSAGGSAG [r3_48_TrMRF] | 1.37 ± 0.13 kcal/mol | 2.5 ± 0.081 kcal/mol | 2.15 ± 0.26 kcal/mol

Sequence | folding stability dG unfold [1] | folding stability dG unfold [2] | folding stability dG unfold [3]
SAGGALDAIKNIAEKFGFPEIEDIDIDPDNGWLSFRFRGPEPVYIKIPWKPDKNGNLPVNIEVYPMDDSAGG [r13_410_TrROS] | 1.48 ± 0.041 kcal/mol | 1.88 ± 0.11 kcal/mol | 1.65 ± 0.13 kcal/mol
SAGGSAGGSPTYTIDVEKYPDGYYFLKIWMPGHNRKIEHPIPPDNPDKIDEITITPNGKIKIDSAGGSAGGS [r20_11_TrROS] | 0.161 ± 0.13 kcal/mol | 0.309 ± 0.24 kcal/mol | 0.263 ± 0.17 kcal/mol
SAGGKVVVLTFPKDNPEEVREALAKLPNVVRVEVEKVNDRYLAVAELEGELAVFVSLPDGRYVLLVLGSAGG [r13_907_TrMRF] | 2.36 ± 0.091 kcal/mol | 2.994 ± 0.021 kcal/mol | 2.73 ± 0.043 kcal/mol
SAGGSAGGSAKKYVLLVTYRHPENGETRTVLVEVETEEEVERAVKELAPPEFDEVKVYVLPASAGGSAGGSA [r18_258_TrMRF] | 2.83 ± 0.15 kcal/mol | 2.79 ± 0.046 kcal/mol | 2.83 ± 0.12 kcal/mol
SAGGSAGGSAMPPLISTTPILGEEPGKRLVREIVTLPDGSLIELTYDEDGNVIESKKYIVGKSAGGSAGGSA [r18_467_JUSTAS] | 0.132 ± 0.041 kcal/mol | 1.22 ± 0.037 kcal/mol | 0.94 ± 0.049 kcal/mol
SAGGSAGGSAGAGKVVFEVDIKTFLGKRKDGSDAPKTIIEIKVFDIAPLDPNDPVLKALISAGGSAGGSAGG [r11_236_TrMRF] | 2.28 ± 0.11 kcal/mol | 3.54 ± 0.15 kcal/mol | 3.26 ± 0.22 kcal/mol
SAGGEVKYEHEGKNPDNGNMYKQEQEVPPVPIPPVIVIPAEDLDEFRELGIPENFKILPGNGWIVITSAGGS [r16_194_TrROS] | 0.44 ± 0.091 kcal/mol | 0.154 ± 0.25 kcal/mol | 0.425 ± 0.13 kcal/mol
SAGGMPEVKIKVEITEIKVDKETGKTVTIRIKSVEITTADGRKYRVEKEIRIRPDGSIEVKVKVEELPSAGG [r13_917_TrROS_Hall] | 2.75 ± 0.089 kcal/mol | 4.21 ± 0.14 kcal/mol | 3.75 ± 0.12 kcal/mol
SAKIRIPLEKLIDLAESIPGVEVLYDPETGLLLAFIPEIGMLILIRLEEDPEDPDNVEVDIEIIPLSPFSAG [r14_604_TrMRF] | 2.75 ± 0.16 kcal/mol | 2.08 ± 0.22 kcal/mol | 2.4 ± 0.19 kcal/mol
SAGMETVTVEVDGATITFVKNEDGTVTAIVTYPNGEVEIYNADGELIRRERLPNGLVVFEFTKEELEKLSAG [r5_457_TrROS_Hall] | 1.19 ± 0.057 kcal/mol | 2.09 ± 0.068 kcal/mol | 1.93 ± 0.14 kcal/mol
SAGGSAGGSAGMIVAKVVEYDPETGEITIEVDGKKITLPLKNMKIKEVNGYLVIEFKEDDSAGGSAGGSAGG [r17_403_TrROS_Hall] | 2.89 ± 0.11 kcal/mol | 3.43 ± 0.082 kcal/mol | 3.25 ± 0.072 kcal/mol
SAMTVYYKITAEVEKTIGDTPETLTVPLTLTVPPDKLNEEEIKKIAEEKAKELGYTLKKIEISKTPSLPSAG [r14_278_JUSTAS] | 2.22 ± 0.084 kcal/mol | 2.06 ± 0.17 kcal/mol | 2.11 ± 0.21 kcal/mol
SEEIIKALEEAGYEVESIEYDEETKTVTITIYRKNKETGKIEKKTITIEVEPGMTEEELLALARELLEKESA [r9_184_TrROS_Hall] | 4.77 ± 0.93 kcal/mol | 4.71 ± 0.31 kcal/mol | 4.83 ± 0.66 kcal/mol
SAGTIREALDNPKNKRVVIMIMIPPEDFPPGDPERYRERAREMANGIMGWFRERGLDVKIEIEIMYMPWSAG [r5_408_TrROS] | 2.38 ± 0.044 kcal/mol | 2.77 ± 0.03 kcal/mol | 2.65 ± 0.079 kcal/mol
SAGGSAGGSAGNWKIKNIEPVRLPNNVHIMKFQIPGRSLIFVFDPKNGQKRWIPLKDIKPSAGGSAGGSAGG [r17_286_TrROS] | -0.301 ± 0.25 kcal/mol | -0.0752 ± 0.14 kcal/mol | -0.0705 ± 0.09 kcal/mol
SAGGSAEELLKKLKIVEVKEVDGKLYIEIEVDEPGLTVEEIKEILKELNLDVPIEVKEVVVVEEKESAGGSA [r15_599_TrROS_Hall] | 1.69 ± 0.14 kcal/mol | 2.16 ± 0.062 kcal/mol | 1.98 ± 0.11 kcal/mol
SAGGSAGGSAGAAPDGETVRITAVFVNPETQEVFVVEATINPDGELTMEVKEVFKLPEGLSAGGSAGGSAGG [r11_226_TrROS_Hall] | 1.42 ± 0.033 kcal/mol | 2.782 ± 0.017 kcal/mol | 2.36 ± 0.068 kcal/mol
SAGGSAGGKKLEELKEKLKKLKPKPELEVEIKIVMSKEEAEKLAKELEKLPNIKKVRVEILEPDSAGGSAGG [r6_284_TrROS_Hall] | -0.155 ± 0.069 kcal/mol | -0.0934 ± 0.11 kcal/mol | 0.0502 ± 0.17 kcal/mol
SAGGSAGGSAGGPTVTLTLEVPVEDAEELAKALEDAGKARVTKVERNEDGFLRITVEFEDSAGGSAGGSAGG [r7_589_TrROS_Hall] | 0.593 ± 0.048 kcal/mol | 1.28 ± 0.027 kcal/mol | 1.06 ± 0.075 kcal/mol
SAGGSAGGSAGGKTYTADEIKKIKKINGKWYVEIDGKTYEIPAKDIKIKKGDKIKIYPVSAGGSAGGSAGGS [r10_665_TrROS_Hall] | 1.45 ± 0.059 kcal/mol | 1.59 ± 0.091 kcal/mol | 1.57 ± 0.16 kcal/mol
SAGGSAGGSAGGTITLPNGAKVTRIEFLPDGTLRVEAVVETDGGPVTVEITLPVYPSLATSAGGSAGGSAGG [r7_37_TrMRF] | 2.19 ± 0.058 kcal/mol | 2.13 ± 0.036 kcal/mol | 2.17 ± 0.037 kcal/mol
